Reference: patent publication US12303551B2, “Cellular immunotherapy compositions and uses thereof” (CERO THERPEUTICS HOLDINGS, INC., priority 2018, dated 2025)

Tested on: SCC152 cells
Experiment: Elimination of GFP-expressing SCC152 target cells over time (quantification and time lapse imaging)
Type: cell-based
Details: 96-well co-culture, CD8+/E7 TCR + CD4+/CER + SCC152 1:1:1, compared to control
Method: Target SCC152 cells were co-cultured with CD8+ T cells transduced with HPV E7 TCR+CD4+ T cells transduced with a selected CER, or controls (CD8+ T cell transduced with HPV E7 TCR+CD4+ transduced control) at a 1:1:1 ratio. The number of target cells were quantified using imaging software. 0 hours, 24 hours, and 48 hours are shown from left to right.
(§1) FIG. 21 is time lapse imaging from 96-well co-culture experiments comprising CD8+ T cells transduced with HPV16 E7 TCR+CD4+ T cells transduced with CER5, CER17 or CER19 incubated with SCC152 target cells at a 1:1:1 ratio. SCC152 HPV+ target cells were quantified using automated cell counting software.
as §1, with “22” for “21”, “CER21, CER23” for “CER5, CER17”, “CER26” for “CER19”
as §1, with “23” for “21”, “CER103b, CER104” for “CER5, CER17”, “CER105” for “CER19”
as §1, with “24” for “21”, “CER106, CER116” for “CER5, CER17”, “CER27” for “CER19”
FIG. 57 is a bar graph showing quantification of loss of SCC152 HPV16+ target cells over time during co-culture assays. SCC152 cells were transduced with green fluorescent protein (GFP) and co-cultured with CD8+ T cells transduced with HPV16 E7 TCR and CD4+ T cells transduced with a selected CER (CER29, CER30, CER110, CER112, CER113, CER114, CER116, or CER117) or a CD4+ T cell control at a 1:1:1 ratio (CD8:CD4:target cell). The number of target cells was quantified at various time points during co-culture (0 hrs, 12 hrs, 24 hrs, and 36 hrs) using fluorescence microscopy and imaging software.
(§2) FIG. 58 are fluorescence micrograph images of the co-culture assay described in FIG. 57, showing clearance of the SCC152 cells (pink) as co-culture with CD8+ T cells transduced with HPV16 E7 TCR and CD4+ T cells transduced with a selected CER (columns from left to right: control, CER29, CER30, CER110, or CER112) progresses (rows from top to bottom: 0 hrs, 12 hrs, 24 hrs, and 36 hrs).
as §2, with “59” for “58”, “CER113, CER114, CER116,” for “CER29, CER30, CER110,”, “CER117)” for “CER112)”
(§3) Elimination of target SCC152 cells was also detected by quantifying green fluorescent protein expression by SCC152 cells over time (0 hr, 24 hr, 48 hr) during co-incubation with CD8+ T cells transduced with HPV16 E7 specific TCR+ CD4 T cells transduced with selected CER (see, FIG. 20).
as §3, with “hr, 12 hr,” for “hr,”, “hr, 36” for “hr, 48”, “TCR+ CD4+” for “TCR+ CD4”, “CER (CER29, CER30, CER110, CER112, CER113, CER114, CER116, or CER117)” for “CER”, “FIG. 57).” for “FIG. 20).”

Molecule | number of SCC152 cells in time lapse imaging
CER105: Chimeric engulfment receptor: Tim4 binding, Tim4 transmembrane, TLR8 and Baff-R signaling; SEQ ID NO: 140 (protein, CER105, amino acids 1-22 are signal peptide) MSKGLLLLWLVTELWWLYLTPAASEDTIIGFLGQPVTLPCHYLSWSQSRNSMCWGKGSCPNSKCNAELLRTDGTRIISRKSTKYTLLGKVQFGEVSLTISNTNRGDSGVYCCRIEVPGWFNDVKKNVRLELRRATTTKKPTTTTRPTTTPYVTTTTPELLPTTVMTTSVLPTTTPPQTLATTAFSTAVTTCPSTTPGSFSQETTKGSAFTTESETLPASNHSQRSMMTISTDIAVLRPTGSNPGILPSTSQLTTQKTTLTTSESLQKTTKSHQINSRQTILIIACCVGFVLMVLLFLAFLHHLFYWDVWFIYNVCLAKVKGYRSLSTSQTFYDAYISYDTKDASVTDWVINELRYHLEESRDKNVLLCLEERDWDPGLAIIDNLMQSINQSKKTVFVLTKKYAKSWNFKTAFYLALQRLMDENMDVIIFILLEPVLQHSQYLRLRQRICKSSILQWPDNPKAEGLFWQTLRNVVLTENDSRYNNMYVDSIKQYSWRRRQRRLRGASSAEAPDGDKDAPEPLDKVIILSPGISDATAPAWPPPGEDPGTTPPGHSVPVPATELGSTELVTTKTAGPEQQ | decreasing in numbers over time
CER27: Chimeric engulfment receptor: Tim4 binding, Tim4 transmembrane, TLR2 signaling; SEQ ID NO: 98 (protein, CER27, amino acids 1-22 are signal peptide) MSKGLLLLWLVTELWWLYLTPAASEDTIIGFLGQPVTLPCHYLSWSQSRNSMCWGKGSCPNSKCNAELLRTDGTRIISRKSTKYTLLGKVQFGEVSLTISNTNRGDSGVYCCRIEVPGWFNDVKKNVRLELRRATTTKKPTTTTRPTTTPYVTTTTPELLPTTVMTTSVLPTTTPPQTLATTAFSTAVTTCPSTTPGSFSQETTKGSAFTTESETLPASNHSQRSMMTISTDIAVLRPTGSNPGILPSTSQLTTQKTTLTTSESLQKTTKSHQINSRQTILIIACCVGFVLMVLLFLAFLHRFHGLWYMKMMWAWLQAKRKPRKAPSRNICYDAFVSYSERDAYWVENLMVQELENFNPPFKLCLHKRDFIPGKWIIDNIIDSIEKSHKTVFVLSENFVKSEWCKYELDFSHFRLFDENNDAAILILLEPIEKKAIPQRFCKLRKIMNTKTYLEWPMDEAQREGFWVNLRAAIKS | decreasing in numbers over time
CER103B: Chimeric engulfment receptor: Tim4 binding, Tim4 transmembrane, TLR8 and CD79b (185-213) signaling; SEQ ID NO: 138 (protein, CER103B, amino acids 1-22 are signal peptide) MSKGLLLLWLVTELWWLYLTPAASEDTIIGFLGQPVTLPCHYLSWSQSRNSMCWGKGSCPNSKCNAELLRTDGTRIISRKSTKYTLLGKVQFGEVSLTISNTNRGDSGVYCCRIEVPGWFNDVKKNVRLELRRATTTKKPTTTTRPTTTPYVTTTTPELLPTTVMTTSVLPTTTPPQTLATTAFSTAVTTCPSTTPGSFSQETTKGSAFTTESETLPASNHSQRSMMTISTDIAVLRPTGSNPGILPSTSQLTTQKTTLTTSESLQKTTKSHQINSRQTILIIACCVGFVLMVLLFLAFLHHLFYWDVWFIYNVCLAKVKGYRSLSTSQTFYDAYISYDTKDASVTDWVINELRYHLEESRDKNVLLCLEERDWDPGLAIIDNLMQSINQSKKTVFVLTKKYAKSWNFKTAFYLALQRLMDENMDVIIFILLEPVLQHSQYLRLRQRICKSSILQWPDNPKAEGLFWQTLRNVVLTENDSRYNNMYVDSIKQYDSKAGMEEDHTYEGLDIDQTATYEDIVTL | decreasing in numbers over time
CER106: Chimeric engulfment receptor: Tim4 binding, Tim4 transmembrane, NFAM1 and TLR8 signaling; SEQ ID NO: 141 (protein, CER106, amino acids 1-22 are signal peptide) MSKGLLLLWLVTELWWLYLTPAASEDTIIGFLGQPVTLPCHYLSWSQSRNSMCWGKGSCPNSKCNAELLRTDGTRIISRKSTKYTLLGKVQFGEVSLTISNTNRGDSGVYCCRIEVPGWFNDVKKNVRLELRRATTTKKPTTTTRPTTTPYVTTTTPELLPTTVMTTSVLPTTTPPQTLATTAFSTAVTTCPSTTPGSFSQETTKGSAFTTESETLPASNHSQRSMMTISTDIAVLRPTGSNPGILPSTSQLTTQKTTLTTSESLQKTTKSHQINSRQTILIIACCVGFVLMVLLFLAFLLWNKKRMRGPGKDPTRKCPDPRSASSPKQHPSESVYTALQRRETEVYACIENEDGSSPTAKQSPLSQERPHRFEDDGELNLVYENLHHLFYWDVWFIYNVCLAKVKGYRSLSTSQTFYDAYISYDTKDASVTDWVINELRYHLEESRDKNVLLCLEERDWDPGLAIIDNLMQSINQSKKTVFVLTKKYAKSWNFKTAFYLALQRLMDENMDVIIFILLEPVLQHSQYLRLRQRICKSSILQWPDNPKAEGLFWQTLRNVVLTENDSRYNNMYVDSIKQY | decreasing in numbers over time
